# Source: US20250154283A1 (published 2025)
# T1: biotinylated human VWF cysteine knot (CK) domain construct (human, biotin on the in vitro biotinylation tag (residue not stated); one N-glycan)
# T1 construct: Disulfide-linked homodimer; also called biotinylated human VWF CK domain; human VWF CK domain construct
# T1 chain: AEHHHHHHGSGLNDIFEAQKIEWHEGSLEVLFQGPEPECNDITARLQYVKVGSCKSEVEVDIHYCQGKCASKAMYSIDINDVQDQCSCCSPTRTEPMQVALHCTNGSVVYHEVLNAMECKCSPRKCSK
# Molecular target: T1, biotinylated human VWF cysteine knot …
# Experiment: SPR, scFv captured on anti-SV5, pH 7.4
row,Binder,binding result
1,"2301_Lib4_scFv (scFv, not shown: small tags and cut ends) scFv: QVQLQESGPGLVKPSQTLSLTCTVSGASISTSDHSWSWIRQPPGKGLEWIGYIRDTGSTDYNPSLKSRVTMSVDTSKNQFSLKVNSVTAADTAVYYCAISSTERWKQSFGVDTEYFQHWGQGTLVTVSSSGGSTITSYNVYYTKLSSSGTEIVMTQSPATLSLSPGERATLSCRASRYVSTNLAWYQQKPGQAPRLLIYDAVTRAPGIPARFSGSGSGTDFTLTISSLEPEDFAVYYCQQYHSLPLIFGGGTKVEIK",binds
2,"15244_Lib8_scFv (scFv, not shown: small tags and cut ends) scFv: EVQLVESGGGLVQPGRSLRLSCAASGFTFADYDMHWVRQAPGKGLEWVSATSSHGVTTDYADSVEGRFTISRDNAKNSLYLQMNSLRAEDTAVYYCARGAWSGIAARQYIDYWGQGTLVTVSSSGGSTITSYNVYYTKLSSSGTDIQMTQSPSSLSASVGDRVTITCRASQTIGYWLAWYQQKPGKAPKLLIYDASVPESGVPSRFSGSGSGTDFTLTISSLQPEDVATYYCQQSYSYPLTFGGGTKVEIK",binds
3,"256_Lib8_scFv (scFv, not shown: small tags and cut ends) scFv: EVQLVESGGGLVQPGRSLRLSCAASGFTVSSNAMHWVRQAPGKGLEWVSAIGTFADTDYADSVEGRFTISRDNAKNSLYLQMNSLRAEDTAVYYCAREGAAAGTNFDYWGQGTLVTVSSSGGSTITSYNVYYTKLSSSGTDIQMTQSPSSLSASVGDRVTITCRASQGIRSYLAWYQQKPGKAPKLLIYGASTLEGGVPSRFSGSGSGTDFTLTISSLQPEDVATYYCQQSYSTPPKFGGGTKVEIK",binds
4,"4956_Lib1_scFv (scFv, not shown: small tags and cut ends) scFv: QVQLVQSGAEVKKPGASVKVSCKVSGYTLTSNYIHWVRQAPGKGLEWMGGFNPSSGSTIYAQKFQGRVTMTEDTSTDTAYMELSSLKSEDTAVYYCARTLYDFWSGYLDAFDIWGQGTMVTVSSSGGSTITSYNVYYTKLSSSGTDIQMTQSPSSVSASVGDRVTITCRASQNIRSSLAWYQQKPGKAPKLLIYAASNLEPGVPSRFSGSGSGTDFTLTISSLQPEDFANYYCQQYEDTPLTFGGGTKVEIK",binds
5,"11485_Lib1_scFv (scFv, not shown: small tags and cut ends) scFv: QVQLVQSGAEVKKPGASVKVSCKVSGAPSAAIIHWVRQAPGKGLEWMGGFTQIFGTAIYAQKFQGRVTMTEDTSTDTAYMELSSLKSEDTAVYYCAREGIGGHDAFDIWGQGTMVTVSSSGGSTITSYNVYYTKLSSSGTDIQMTQSPSSVSASVGDRVTITCRASQDISKNLAWYQQKPGKAPKLLIYKASKLESGVPSRFSGSGSGTDFTLTISSLQPEDFANYYCLHDYTYPPTFGGGTKVEIK",binds
6,"Lib1_P1_A1_scFv (scFv, not shown: small tags and cut ends) scFv: QVQLVQSGAEVKKPGASVKVSCKVSGDTLSNYAIHWVRQAPGKGLEWMGGINPNAGTTIYAQKFQGRVTMTEDTSTDTAYMELSSLKSEDTAVYYCARDSSSWSQFGYYYYYMDVWGKGTTVTVSSSGGSTITSYNVYYTKLSSSGTDIQMTQSPSSVSASVGDRVTITCRASQSIGDFLAWYQQKPGKAPKLLIYDASHLQTGVPSRFSGSGSGTDFTLTISSLQPEDFANYYCQQTSTIPPTFGGGTKVEIK",binds
7,"4035_Lib1_scFv (scFv, not shown: small tags and cut ends) scFv: QVQLVQSGAEVKKPGASVKVSCKVSGYAFPSYGIHWVRQAPGKGLEWMGGISAFTGDTIYAQKFQGRVTMTEDTSTDTAYMELSSLKSEDTAVYYCASGPTNVLTGLMESAEYFQHWGQGTLVTVSSSGGSTITSYNVYYTKLSSSGTDIQMTQSPSSVSASVGDRVTITCRASQGISRDLAWYQQKPGKAPKLLIYGASGRATGVPSRFSGSGSGTDFTLTISSLQPEDFANYYCQQSYITPTTFGGGTKVEIK",binds
8,"487_Lib1_scFv (scFv, not shown: small tags and cut ends) scFv: QVQLVQSGAEVKKPGASVKVSCKVSGYTFTSHIIHWVRQAPGKGLEWMGGMNPYSNKAIYAQKFQGRVTMTEDTSTDTAYMELSSLKSEDTAVYYCARDASDYGDYGYYYYYMDVWGKGTTVTVSSSGGSTITSYNVYYTKLSSSGTDIQMTQSPSSVSASVGDRVTITCRASQSIGDFLAWYQQKPGKAPKLLIYDASHLQTGVPSRFSGSGSGTDFTLTISSLQPEDFANYYCQQTSTIPPTFGGGTKVEIK",binds
9,"Lib6_P3_B9_scFv (scFv, not shown: small tags and cut ends) scFv: EVQLVQSGAEVKKPGASVKVSCKASGDTFSSHVISWVRQAPGQGLEWMGGINPRTGTTIYAQKLQGRGTMTTDPSTSTAYMELRSLRSDDTAVYYCARTRPWAGLDVWGQGTTVTVSSSGGSTITSYNVYYTKLSSSGTESALTQPASVSGSPGQSITISCTGTNIEYKGVSWYQQHPGKAPKLMIYGVDKRPSGVSNRFSGSKSGNTASLTISGLQAEDEADYYCQAWGTSTAIFGGGTKLTVL",binds
10,"Lib1_P1_G3_scFv (scFv, not shown: small tags and cut ends) scFv: QVQLVQSGAEVKKPGASVKVSCKVSGYTSRQYIHWVRQAPGKGLEWMGWVTPIFGTTNYAQKFQGRVTMTEDTSTDTAYMELSSLKSEDTAVYYCAREWTGTTAFDIWGQGTLVTVSSSGGSTITSYNVYYTKLSSSGTDIQMTQSPSSVSASVGDRVTITCRASQDIGHYLAWYQQKPGKAPKLLIYAASNRASGVPSRFSGSGSGTDFTLTISSLQPEDFANYYCQQGYSAPYGFGGGTKVEIK",binds

# Second part, the binder after the results:
row,binding result,Binder
1,binds,"Lib1_P1_A2_scFv (scFv, not shown: small tags and cut ends) scFv: QVQLVQSGAEVKKPGASVKVSCKVSEGTLSRHYINWVRQAPGKGLEWMGGINAKSGATIYAQKFQGRVTMTEDTSTDTAYMELSSLKSEDTAVYYCAKDTGDDILTDYSDAFDIWGQGTMVTVSSSGGSTITSYNVYYTKLSSSGTDIQMTQSPSSVSASVGDRVTITCRASQNIGTSLAWYQQKPGKAPKLLIYGASNLESGVPSRFSGSGSGTDFTLTISSLQPEDFANYYCLQYNDWPPLYSFGGGTKVEIK"
2,binds,"965_Lib4_scFv (scFv, not shown: small tags and cut ends) scFv: QVQLQESGPGLVKPSQTLSLTCTVSGASFGDNYWSWIRQPPGKGLEWIGYIDTSGSSDYNPSLKSRVTMSVDTSKNQFSLKVNSVTAADTAVYYCARDALGYYYMDVWGKGTTVTVSSSGGSTITSYNVYYTKLSSSGTEIVMTQSPATLSLSPGERATLSCRASQGISGRLAWYQQKPGQAPRLLIYDASARASGIPARFSGSGSGTDFTLTISSLEPEDFAVYYCQQYGTSPYTFGGGTKVEIK"
3,binds,"Lib6_P3_A8_scFv (scFv, not shown: small tags and cut ends) scFv: EVQLVQSGAEVKKPGASVKVSCKASGYRFTNYDISWVRQAPGQGLEWMGGINPSSGITIYAQKLQGRGTMTTDPSTSTAYMELRSLRSDDTAVYYCARGAAYGDYLDYWGQGTLVTVSSSGGSTITSYNVYYTKLSSSGTESALTQPASVSGSPGQSITISCTGTNLGEKYVSWYQQHPGKAPKLMIYSTSQRPSGVSNRFSGSKSGNTASLTITGLQAEDEADYYCSSYTASSTPGLVFGGGTKLTVL"
4,binds,"1675_Lib1_scFv (scFv, not shown: small tags and cut ends) scFv: QVQLVQSGAEVKKPGASVKVSCKVSGVTLTSSAISWVRQAPGKGLEWMGGITPIFGTPIYAQKFQGRVTMTEDTSTDTAYMELSSLKSEDTAVYYCATDYGYPFWAFDIWGQGTMVTVSSSGGSTITSYNVYYTKLSSSGTDIQMTQSPSSVSASVGDRVTITCRASQGIYSALAWYQQKPGKAPKLLIYESSKRPSGVPSRFSGSGSGTDFTLTISSLQPEDFANYYCEQYASSPPTFGGGTKVEIK"
5,binds,"Lib4_P2_A3_scFv (scFv, not shown: small tags and cut ends) scFv: QVQLQESGPGLVKPSQTLSLTCTVSGVSLSTSDYSWSWIRQPPGKGLEWIGYISPPGRSDYNPSLKSRVTMSVDTSKNQFSLKVNSVTAADTAVYYCARHSSSGWYSTYDFDSWGQGTMVTVSSSGGSTITSYNVYYTKLSSSGTEIVMTQSPATLSLSPGERATLSCRASQNIHSNLAWYQQKPGQAPRLLIYGATTRATGIPARFSGSGSGTDFTLTISSLEPEDFAVYYCQQSYTTPLTFGGGTKVEIK"
6,binds,"399_Lib1_scFv (scFv, not shown: small tags and cut ends) scFv: QVQLVQSGAEVKKPGASVKVSCKVSGITFTSDYIHWVRQAPGKGLEWMGGMNPYSNKAIYAQKFQGRVTMTEDTSTDTAYMELSSLKSEDTAVYYCATGGLRIAARTSYFDYWGQGTLVTVSSSGGSTITSYNVYYTKLSSSGTDIQMTQSPSSVSASVGDRVTITCRASMDIAGSLAWYQQKPGKAPKLLIYDTSFRATGVPSRFSGSGSGTDFTLTISSLQPEDFANYYCQQYDNPPRLTFGGGTKVEIK"
7,binds,"96_Lib4_scFv (scFv, not shown: small tags and cut ends) scFv: QVQLQESGPGLVKPSQTLSLTCTVSGESFSTSYWSWIRQPPGKGLEWIGYITHSGYTDYNPSLKSRVTMSVDTSKNQFSLKVNSVTAADTAVYYCARGGRFPFWYFDLWGRGSLVTVSSSGGSTITSYNVYYTKLSSSGTEIVMTQSPATLSLSPGERATLSCRASRSIGSNLAWYQQKPGQAPRLLIYGATTRATGIPARFSGSGSGTDFTLTISSLEPEDFAVYYCQQYKNDATFGGGTKVEIK"
8,binds,"27_Lib4_scFv (scFv, not shown: small tags and cut ends) scFv: QVQLQESGPGLVKPSQTLSLTCTVSGASFGDHYWSWIRQPPGKGLEWIGYIDATGSIDYNPSLKSRVTMSVDTSKNQFSLKVNSVTAADTAVYYCARVASYYYYMDVWGKGTTVTVSSSGGSTITSYNVYYTKLSSSGTEIVMTQSPATLSLSPGERATLSCRASQSITGSYLAWYQQKPGQAPRLLIYGASDRAPGIPARFSGSGSGTDFTLTISSLEPEDFAVYYCQQYGSFPYTFGGGTKVEIK"
9,binds,"16_Lib8_scFv (scFv, not shown: small tags and cut ends) scFv: EVQLVESGGGLVQPGRSLRLSCAASGFRFDEYDMHWVRQAPGKGLEWVSAISSESASIDYADSVEGRFTISRDNAKNSLYLQMNSLRAEDTAVYYCARDGAYGDYFDYWGQGTMVTVSSSGGSTITSYNVYYTKLSSSGTDIQMTQSPSSLSASVGDRVTITCRASQDIKSWLAWYQQKPGKAPKLLIYGASTLQSGVPSRFSGSGSGTDFTLTISSLQPEDVATYYCQQSYSAPYTFGGGTKVEIK"
10,binds,"Lib4_P2_A10_scFv (scFv, not shown: small tags and cut ends) scFv: QVQLQESGPGLVKPSQTLSLTCTVSGASLGHQYWSWIRQPPGKGLEWIGYIDTSGSTDYNPSLKSRVTMSVDTSKNQFSLKVNSVTAADTAVYYCARVANYYYYMDVWGKGTTVTVSSSGGSTITSYNVYYTKLSSSGTEIVMTQSPATLSLSPGERATLSCRASQSVSNRLAWYQQKPGQAPRLLIYDASNRATGIPARFSGSGSGTDFTLTISSLEPEDFAVYYCQQYFITPSTFGGGTKVEIK"
